The DeepSol protein solubility set

Assay: soluble on expression in E. coli; label from the status in PepcDB or PDB records

Row | Sequence | soluble on expression in E. coli
1 | SLSKRLLSLASLALLFGCAQQPNDRAQQYQQQTFPHILNRADVVESNKPRDYTEFSKQSELVVQGSASMAKIYRPLYEQLNEWVLQSGDPATLAQFGIQAAQLGGGDKQGNVLFTGYFSPVIELRHQPDSVFKYPVYGLPKCNKNCPTRAEIYQGALDGQGLELGYAENLIDPFIMEVQGSGFVHFGDDDTLEYFAYAGKNNKAYVSIGKVLIERGLVEREKMSLKAIKDWVLANDEATVRELLEENPSFVFFKPSAAAPVKGSAGIPLLPMASVAGDRSILPMGTPILAEVPLLNADGTWSGAHQLRLLIVLDTGGAVKQNHLDLYHGMGPRAGLEAGHYKHFGRVWKLGLENSPTQAPWALPPEKQQ | not soluble
2 | SLSPAMSFLKSFPPPGSADGLRLQQPDTEAVLNGKGLGTGTLYIAESRLSWLDGSGLGFSLEYPTISLHAVSRDPNAYPQEHLYVMVNAKLGEESKEPLSDEDEEDNDDVEPISEFRFVPSDKSALEAMFTAMCECQALHPDPEDEDSDDYDGEEYDVEAHEQGQGDIPTFYTYEEGLSHLTAEGQATLERLEGMLSQSVSSQYNMAGVRTEDSVRNYEDGMEVETTPTVAGQFEDADVDH | soluble
3 | SLSTRGINFLHQWIANNVPETTKPDAVSISEITHKLFSDAKALGIKREDIDEEVESLTAHCSIGLCISTLA | not soluble
4 | SLTMNPLLTAEWGNVSEEKVEVVVDAGLGKALLVPASVESLSMQFNGVEVASLEEFDYSPTKSNARIVIGIDPNELVRALERYFESNQHGELSVEAKLGLFGLLHSTLTFSREFQQDILGQMDFKAESKPIFGGLLYTPSVEGTKVVWLGAENGVWNLKTYATLKNPNSFPIPVSNLEFEVSVNGIKVGVGNISQGVTIPAGGVATVPIDTEIYSEYLPTVLVAHIKNGEESSVEVNFYITVSSGGKSARINLTSERIVIQTDIMASINDALSGVSPRE | soluble
5 | SLTQKEQEEKLYMMLPVFNRVFGNAPPNTMTEKFSDLLQFTTQVSRLMVTEIRRRASNKSTEAASRAIVQFLEINQSEEASRGWMLLTTINLLASSGQKTVDCMTTMSVPSTLVKCLYLFFDLPHVPEAGGGAQNELPLAERRGLLQKAFVQILVKLCSFVSPAEELAQKDDLQLLFSAITSWCPPYNLPWRKSAGEVLMTISRHGLSVNVVKYIHEKECLSTCVQNMQQSDDLSPLEIVEMFAGLSCFLKDSSDVSQTLLDDFRIWQGYNFLCDLLLRLEQGKEAECRDALKDLVSLVTSLTTYGVSELKPAGVTTGAPFLLPGFAVPQPAGKGHSVRNIQAFAVLQNAFLKAKTNFLAQIILDAITNIYMADNANYFILESQHTLSQFAEKISKLPEVQNKYFEMLEFVVFSLNYIPCKELISVSILLKSSSSYHCSIIAMKTLLKFTRHDYIFKDVFREVGLLEVMVNLLHKYAALLKDPAQALN | soluble
6 | SLTTVSVNESLLTPLNLEIDPNAQCVKQEEKEQIKSLNSRFAAFIDKVRFLEQQNKLLETKLQFYQNRECCQSNMEPLFEGYIETLRREAECVEADSGRLASELNHVQEVLEGYKKKYEEEVSLRATAENEFVALKKDVDCAYLRKSDLEANVEALIQEIDFLRRLYEEEIRILQSHISDTSVVVKLDNSRDLNMDCIIAEIKAQYDDIVTRSRAEAESWYRSKCEEMKATVIRHGETLRRTKEEINELNRMIQRLTAEVENAKCQNSKLEAAVAQSEQQGEAALSDARCKLAELEGALQKAKQDMACLIREYQEVMNSKLGLDIEIATYRRLLEGEEQRLCEGIGAVNVCVSSSRGGVVCGDLCVSGSRPVTGSVCSAPCNGNVAVSTGLCAPCGQLNTTCGGGSCGVGSCGISSLGVGSCGSSCRKC | soluble
7 | SMEEKLKKTNIIFVVGGPGSGKGTQCEKIVQKYGYTHLSTGDLLRSEVSSGSARGKKLSEIMEKGQLVPLETVLDMLRDAMVAKVNTSKGFLIDGYPREVQQGEEFERRIGQPTLLLYVDAGPETMTQRLLKRGETSGRVDDNEETIKKRLETYYKATEPVIAFYEKRGIVRKVNAEGSVDSVFSQVCTHLDALLN | soluble
8 | SMQGPRTRARLGANEVLLVVGGFGSQQSPIDVVEKYDPKTQEWSFLPSITRKRRYVASVSLHDRIYVIGGYDGRSRLSSVECLDYTADEDGVWYSVAPMNVRRGLAGATTLGDMIYVSGGFDGSRRHTSMERYDPNIDQWSMLGDMQTAREGAGLVVASGVIYCLGGYDGLNILNSVEKYDPHTGHWTNVTPMATKRSGAGVALLNDHIYVVGGFDGTAHLSSVEAYNIRTDSWTTVTSMTTPRCYVGATVLRGRLYAIAGYDGNSLLSSIECYDPIIDSWEVVTSMGTQRCDAGVCVLRE | soluble
9 | SMRYTVSNLSMQTHAARFKTFFNWPSSVLVNPEQLASAGFYYVGNSDDVKCFCCDGGLRCWESGDDPWVQHAKWFPRCEYLIRIKGQEFIRQVQAS | soluble
10 | SNAGQLCCLREDGERCGRAAGNASFSKRIQKSISQKKVKIELDKSARHLYICDYHKNLIQSVRNRRKRKGS | soluble
11 | SNAMILIDGKSLSKDLKERLATQVQEYKHHTAITPKLVAIIVGNDPASKTYVASKEKACAQVGIDSQVITLPEHTTESELLELIDQLNNDSSVHAILVQLPLPAHINKNNVIYSIKPEKDVDGFHPTNVGRLQLRDKKCLESCTPKGIMTMLREYGIKTEGAYAVVVGASNVVGKPVSQLLLNAKATVTTCHRFTTDLKSHTTKADILIVAVGKPNFITADMVKEGAVVIDVGINHVDGKIVGDVDFAAVKDKVAAITPVPGGVGPMTITELLYNTFQCAQELNR | soluble
12 | SNAMKKTLILGATPETNRYAYLAAERLKSHGHEFIPVGRKKGEVLGKTIINERPVIEGVDTVTLYINPQNQLSEYNYILSLKPKRVIFNPGTENEELEEILSENGIEPVIGCTLVMLSAGTF | soluble
13 | SNAMPKRSKEDTEITIQKIMDAVVDQLLRLGYDKMSYTTLSQQTGVSRTGISHHFPKKTDFTAALDGRIFKMFIEHLEFEKGLDAFSQSWIKALEDSEFLAILRLLFHHIVTSESAHEFAANGIDRLYKMVESQFGSGGDKELEWLIGRSLIQMSK | soluble
14 | SNAMTKIYFAGPLFSQADLRYNAYLVEQIRQLDKTIDLYLPQENAAINDKSAYADSKMIALADTENVLASDLLVALLDGPTIDAGVASEIGVAYAKGIPVVALYTDSRQQGADNHQKLDALNEIAENQFHYLNLYTVGLIKLNGRVVSSEEDLLEEIKQRLS | soluble
15 | SNATAYIIVGLTPKDAEKLQQYGARVASTLAKYSGEVLVKGSVEQLHGKFEHKAQVILEFPSREDAYNWYHSEEYQALISTRDLGMDSQFQLIG | soluble
16 | SNAVFGVKEWECEVLSNKNVSTFIKEFVVKLPEGETMNFKSGSYAQIKIPKYNIRYADYDIQDRFRGDWDKMDAWSLTCKNEEETVRAYSMANYPAEGNIITLNVRIATPPFDRAANKWKAGIKPGISSSYIFSLKPGDKVMMSGPYGDFHIQDTDAEMLYIGGGAGMAPLRAQILHLFRTLKTGRKVSYWYGARSKNEIFYEEDFREIEREFPNFKFHIALSDPQPEDNWTGYVGFIHQVIYDNYLKDHDAPEDIEYYMCGPGPMANAVKGMLENLGVPRNMLFFDDFG | soluble
17 | SNMEVDVFPDLNAPTVVVMTEATGMAPEEVERLVTFPVETAVNGATDVRRVRSSSTTGFSIVWVEFDWGTDIYRARQIVSEKLAVVGADLPDNVGKPTLGPQSSILGEVMIIGLTADSTSLQDLRTLADWTIRPRLLSIGGVAQVTVLGGDIKEYQILLNPERMKHYGITLAEVRAAVDQMNRNASGGVLYEYGNEYIICGLLSTNDAAALGKTLVKSLDDIPIMLESVAEVRVGNKAPKLGLASERGQSAVLVTITKQPATSTLELTERLDRSLADLQKALPSDVKVSTDIFRQERFIENSISNVRK | not soluble
18 | SNPQIRNPMKAMYPGTFYFQFKNLWEANDRDETWLCFTVEGIKRRSVVSWKTGVFRNQVDSETHCHAERCFLSWFCDDILSPNTKYQVTWYTSWSPCPDCAGEVAEFLARHSNVNLTIFTARLYYFQYPCYQEGLRSLSQEGVAVEIMDYEDFKYCWENFVYNDNEPFKPWKGLKTNFRLLKRRLRESLQ | soluble
19 | SNPSSSGGTTKRFRTKFTAEQKEKMLAFAERLGWRIQKHDDVAVEQFCAETGVRRQVLKIWMHNNKN | soluble
20 | SNRHLCKECFKKDIERRAKKVLGKDIIRNNVKIGIGISGGKDSLVMAYILKELFKHIPNAKLICFFVDEGIKGFRNIAEKYVKEFCKEYNLDLKIIKFEDEIGYTLDEIVKNDYLSKLNIGKPCSFCGVVRRYLLNKHALKEGCDYLAIGHNLDDFCQTILMNYVEGNIKNIIQFGKEFEGGGFVKRIKPLKLIPEEEVKLYAEINNIKYQREPC | not soluble
21 | SPGRSSTSSGSTRYISFSGIESALSSLKNFQSCISSGMDTVSSVALDLVETQTEVSSEYSMDKAMVEFAKMDRELSHYVKAVQSTINHVKEERPEKVPDLKLLVEKKFLALQDKNSDADFKENEKFVQFKQQLRELKKQYGIHADRENDLTEGVDEDMIVTQSQTNFICPITQLEMKKPVKNKMCGHTYEEEAIVRMIESKHKRKKKACCPKIGCSHTDMRMSDLIPDEALRRAIESHNKKKKRHSE | soluble
22 | SPKKAKPTGSGKEEGPAPCKQMKLEAAGGPSALNFDSPSSLFESLISPIKTETFFKEFWEQKPLLIQRDDPALATYYGSLFKLTDLKSLCSRGMYYGRDVNVCRCVNGKKKVLNKDGKAHFLQLRKDFDQKRATIQFHQPQRFKDELWRIQEKLECYFGSLVGSNVYITPAGSQGLPPHYDDVEVFILQLEGEKHWRLYHPTVPLAREYSVEAEERIGRPVHEFMLKPGDLLYFPRGTIHQADTPAGLAHSTHVTISTYQNNSWGDFLLDTISGLVFDTAKEDVELRTGIPRQLLLQVESTTVATRRLSGFLRTLADRLEGTKELLSSDMKKDFIMHRLPPYSAGDGAELSTPGGKLPRLDSVVRLQFKDHIVLTVLPDQDQSDETQEKMVYIYHSLKNSRETHMMGNEEETEFHGLRFPLSHLDALKQIWNSPAISVKDLKLTTDEEKESLVLSLWTECLIQVV | soluble
23 | SPLDRDPAFRVITVTKETGLGLKILGGINRNEGPLVYIHEVIPGGDCYKDGRLKPGDQLVSINKESMIGVSFEEAKSIITRAKLRSESPWEIAFIR | soluble
24 | SPLELELCPGRWVGGQHPCFIIAEIGQNHQGDLDVAKRMIRMAKECGADCAKFQKSELEFKFNRKALDRPYTSKHSWGKTYGEHKRHLEFSHDQYRELQRYAEEVGIFFTASGMDEMAVEFLHELNVPFFKVGSGDTNNFPYLEKTAKKGRPMVISSGMQSMDTMKQVYQIVKPLNPNFCFLQCTSAYPLQPEDVNLRVISEYQKLFPDIPIGYSGHETGIAISVAAVALGAKVLERHITLDKTWKGSDHSASLEPGELAELVRSVRLVERALGSPTKQLLPCEMACNEKLGKSVVAKVKIPEGTILTMDMLTVKVGEPKGYPPEDIFNLVGKKVLVTVEEDDTIMEELVDNHGKKIKS | soluble
25 | SPSCSPQQASKAEENGSNSFMHSMVPQLEWQMETTQSLVDSYVAIVNKTVWDLMVGLTPKTIMHLMINNNKEFIFSELLANLYLHGDKNMLMEESAEQAQRS | soluble
26 | SPWSQDRVEHLYEQVAAENSVDLLKKGQFQGTPDGSSVVFIDDIKDSTLSNVFVAQMRPRDSVLPSVMFSSSGEVKELSDGRQVITMQEGTRYEGVPTRVEYMITKFDEYEGVIGQREVKQKGRDWEAYPTADLIGHPDPEAQAELQWR | not soluble
27 | SQGRKPSSELISYQRLHPNEFEIKNLGVLPQSHVIRMERVRFADDIPVAYEITSIPEKIIRGFKESEITEHFFKTLTDNGYEIGKSQQTISASLANSSLAKHLKVKTGDALLSLTQISFLQDGQAFEYVRSYYVGDRFE | not soluble
